The text below walks through data of the RNAGym collection of RNA variant scans (doi:10.7554/elife.90254).

B1: LINE1-mini (parent)
chain: GGCAGAGCUCAACACAGCGUGGCAAAGUGGCUGUGGCUAGACUGCC

Variants of B1 are the subject of this series. Kind of series: self-cleavage, relative activity (ratio to wild type); higher = more cleavage; in vitro, sequencing; the parent is a self-cleaving ribozyme.
U20C U43C: the self-cleavage was determined as 0.09. Take U20C U43A: the self-cleavage was 0.05.

Take U20C U43G: the self-cleavage amounted to 0.01. Next, G21A G22U: 0.56; G21A G22C: 0.38. With G21A G22A, the self-cleavage was determined as 1.3. As to G21A G35A, the self-cleavage was 0.15. To G21A G35C belongs 0.19; to G21A G35U, 0.35. To U20A A39G belongs 0.06.

Turning to U20A A39U, the self-cleavage came out at 0.62. To U20A A39C belongs 0.08; to U20A U28C, 0.67; to U20A U28G, 0.28. To U20A U28A belongs 0.55. For U20C G22U, the self-cleavage was 0.4. Next, U20C G22C: 0.19; U20C G22A: 0.77; U20C G33A: 0.1. Next, U20C G33U: 0.14.

U20C G33C: the self-cleavage turned out to be 0.07. On to U20C G27C, for which the self-cleavage was found to be 0.28.

As for U20C G27U, the self-cleavage was 0.31.

Take U20C G27A: the self-cleavage came out at 0.78.

For U20G G21A, the self-cleavage was found to be 0.69. Next, U20G G21U: 0.97. To U20G G21C belongs 0.46; to U20C A26C, 0.36; to U20C A26G, 0.36. In the case of U20C A26U, the self-cleavage was found to be 0.68. Next, U20A G33U: 0.07; U20A G33A: 0.13. Next, U20A G33C: 0.04; U20G G27U: 0.25; U20G G27C: 0.38. Next, U20G G27A: 0.72; U20G U34G: 0.14. Consider U20G U34A, for which the self-cleavage was 0.06. Next, U20G U34C: 0.39; U20C G30A: 0.45. Next, U20C G30C: 0.98; U20C G30U: 0.41; U20A G30U: 0.93. In the case of U20A G30C, the self-cleavage stood at 0.68. Next, U20A G30A: 0.62. Next, U20C C37U: 0.06; U20C C37G: 0.23; U20C C37A: 0.04. Next, U20G G40C: 0.04; U20G G40U: 0.13; U20G G40A: 0.06. Turning to G21A C42A, the self-cleavage is 0.54. To G21A C42G belongs 0.06; to G21A C42U, 1.82. To G21C A26U belongs 1.57; to G21C A26G, 0.35; to G21C A26C, 1.03. Next, U20C U28A: 0.93. On to U20C U28C, for which the self-cleavage came out at 0.54.

Turning to U20C U28G, the self-cleavage came to 0.93. Next, U20C A25U: 1.02; U20C A25G: 0.53. As to U20C A25C, the self-cleavage came out at 0.75.

With U20A U34C, the self-cleavage was 0.27. Turning to U20A U34G, the self-cleavage was 0.25. For the variant U20A U34A, the self-cleavage is 0.08. Next, G21A G44U: 0.56; G21A G44A: 0.98; G21A G44C: 0.52. Next, U20G A25C: 0.19; U20G A25G: 0.48. Turning to U20G A25U, the self-cleavage worked out at 1.21. To G21A U28A belongs 1.94; to G21A U28C, 1.44. To G21A U28G belongs 1.2. Next, U20A G21A: 0.76. As for U20A G21U, the self-cleavage stood at 0.69. For U20A G21C, the self-cleavage worked out at 0.39.

For U20C A39C, the self-cleavage stood at 0.2. Next, U20C A39G: 0.06.

U20C A39U: the self-cleavage was 0.37. As to U20A A24C, the self-cleavage is 0.28. Next, U20A A24U: 0.62. U20A A24G: the self-cleavage worked out at 0.68. As to G21A G36U, the self-cleavage was 0.15.

For the variant G21A G36C, the self-cleavage came out at 0.1. Next, G21A G36A: 0.3; U20C G40C: 0.06.

For the variant U20C G40U, the self-cleavage is 0.1. For U20C G40A, the self-cleavage came out at 0.09. In the case of U20C C46U, the self-cleavage is 0.42.

As for U20C C46A, the self-cleavage was determined as 0.7.

U20C C46G: the self-cleavage turned out to be 0.47. For U20G C46A, the self-cleavage turned out to be 0.78.

Turning to U20G C46U, the self-cleavage turned out to be 0.44.

Take U20G C46G: the self-cleavage was 0.45. To U20G G22A belongs 0.55; to U20G G22C, 0.41; to U20G G22U, 0.51. Turning to G21A C31U, the self-cleavage amounted to 0.63.

For G21A C31G, the self-cleavage worked out at 0.13. G21A C31A: the self-cleavage is 0.12. Next, U20G C45G: 0.25; U20G C45U: 1.62. As to U20G C45A, the self-cleavage is 0.29.

In the case of U20G G29U, the self-cleavage stood at 0.48. In the case of U20G G29C, the self-cleavage turned out to be 0.35.

On to U20G G29A, for which the self-cleavage worked out at 1.02. Next, U20G C37A: 0.02; U20G C37G: 0.07.

Regarding U20G C37U, the self-cleavage stood at 0.06. U20A A26U: the self-cleavage was 0.91. Next, U20A A26C: 0.76; U20A A26G: 0.91. To U20A C46U belongs 0.65. Next, U20A C46A: 0.76; U20A C46G: 0.79; U20C G21A: 0.8. For U20C G21C, the self-cleavage amounted to 0.39. To U20C G21U belongs 0.45.

For U20C C45G, the self-cleavage came out at 0.3. To U20C C45A belongs 0.34; to U20C C45U, 1.12; to U20C A41U, 0.46.

In the case of U20C A41C, the self-cleavage was determined as 0.08.

On to U20C A41G, for which the self-cleavage turned out to be 1. To U20A U43A belongs 0.08.

U20A U43C: the self-cleavage amounted to 0.13.

As for U20A A41C, the self-cleavage came to 0.05.

Consider U20A A41U, for which the self-cleavage turned out to be 0.35.

For U20A A41G, the self-cleavage was 0.36. As for U20C U38G, the self-cleavage amounted to 0.01. Next, U20C U38C: 0.22; U20C U38A: 0.19; U20A U32A: 0.06.

For the variant U20A U32G, the self-cleavage came out at 0.08. Take U20A U32C: the self-cleavage was found to be 0.09. To U20C G44U belongs 0.14; to U20C G44C, 0.09; to U20C G44A, 0.12. To U20G C31U belongs 0.11; to U20G C31G, 0.04; to U20G C31A, 0.07. To U20C U34G belongs 0.22.

With U20C U34C, the self-cleavage turned out to be 0.18. Consider U20C U34A, for which the self-cleavage stood at 0.12. To G21C A24G belongs 0.44; to G21C A24U, 0.63. Regarding G21C A24C, the self-cleavage was 0.43. To G21A G30U belongs 2.01; to G21A G30A, 1.73; to G21A G30C, 0.61. To U20C U32C belongs 0.05. In the case of U20C U32A, the self-cleavage came to 0.05. Take U20C U32G: the self-cleavage worked out at 0.04. To U20G G35C belongs 0.11; to U20G G35A, 0.06. Next, U20G G35U: 0.12; U20G G36A: 0.08. Next, U20G G36U: 0.07; U20G G36C: 0.09. Take U20A G44U: the self-cleavage is 0.2. To U20A G44C belongs 0.16. With U20A G44A, the self-cleavage stood at 0.51. To U20A C45U belongs 1.4. Next, U20A C45G: 0.21; U20A C45A: 0.77.
